In paper PMC11538491:
Where two headings read alike, the source gives them in different places.

Experiments:
[1] = biological target: parvovirus B19 (B19V) virion purified from infected patient plasma, genotype 1 (human parvovirus B19); assay: cryo-EM structure
[2] = biological target: parvovirus B19 (B19V) virion purified from infected patient plasma, genotype 1 (human parvovirus B19); assay: cryo-EM structure; remark: listed apart in the source

For “inter-alpha-trypsin inhibitor heavy chain 4 (ITIH4) from human plasma, bound to the B19V capsid (natural protein)”, the occupancy of the binding sites [1] was 19.4% and the stoichiometry N (molecules per capsid) [1] was 12.

B1: serpinA3 from human plasma, bound to the B19V capsid (natural protein)
chain: HPNSPLDEENLTQENQDRGTHVDLGLASANVDFAFSLYKQLVLKAPDKNVIFSPLSISTALAFLSLGAHNTTLTEILKGLKFNLTETSEAEIHQSFQHLLRTLNQSSDELQLSMGNAMFVKEQLSLLDRFTEDAKRLYGSEAFATDFQDSAAAKKLINDYVKNGTRGKITDLIKDLDSQTMMVLVNYIFFKAKWEMPFDPQDTHQSRFYLSKKKWVMVPMMSLHHLTIPYFRDEELSCTVVELKYTGNASALFILPDQDKMEEVEAMLLPETLKRWRDSLEFREIGELYLPKFSISRDYNLNDILLQLGIEEAFTSKADLSGITGARNLAVSQVVHKAVLDVFEEGTEASAATAVKITLLSALVETRTIVRFNRPFLMIIVPTDTQNIFFMSKVTNPKQA
modifications: five extra densities at the predicted N-glycosylation sites (positions not given)
B1 was tested, and the occupancy of the binding sites [2] was 38.3%, the stoichiometry N (molecules per capsid) [2] was 23 and the stoichiometry N (sites occupied per capsid (of 30)) [2] was 22.
